Test results reported in patent US20200017851A1.

What was measured:
mesothelin (MSLN) [1] = target: mesothelin (MSLN) (UniProt Q13421); assay: virus binding to Panc-1 cells (MSLN strongly-positive), 4 C, E4 qPCR; reference AdMG553 (Ad5/Ad3 fiber)
mesothelin (MSLN) [2] = target: mesothelin (MSLN) (UniProt Q13421); assay: virus binding to Panc-1 cells (MSLN strongly-positive), 4 C, E4 qPCR; reference AdML-5WT (native Ad5 fiber)

Substance: AdML-VTIN (isolated adenovirus with the VTINRSA (SEQ ID NO:12) motif in the AB-loop of the fiber knob) (from UniProt P11818 1-410; P11818 418-581)
- fold binding ability against AdMG553 (mesothelin (MSLN) [1]): 2 fold
- fold binding ability against AdML-5WT (mesothelin (MSLN) [2]): 5 fold
